Data: paper PMC2873509, “The RNA binding protein HuR does not interact directly with HIV-1 reverse transcriptase and does not affect reverse transcription in vitro”

How the values were obtained:
NusA-HuR [1] = target: T1, NusA-HuR (UniProt Q15717 1-326); test: EMSA; 0-3 uM HuR, 100 nM RNA; EMSA: 50 mM Tris pH 7.5, 50 mM KCl, 37 C, 1 h, 100 nM 32P-RNA; 7% native PAGE in 40 mM Tris-acetate pH 8.0, 1 mM EDTA, room temperature; details: protein: recombinant; tags: N-terminal NusA fusion, TEV site ENLYFQS; Ni-NTA purified; label: 32P
NusA-HuR [2] = target: T1, NusA-HuR; test: EMSA; EMSA: 50 mM Tris pH 7.5, 50 mM KCl, 37 C, 1 h, 100 nM 32P-RNA; 7% native PAGE in 40 mM Tris-acetate pH 8.0, 1 mM EDTA, room temperature; details: protein: recombinant; tags: N-terminal NusA fusion, TEV site ENLYFQS; Ni-NTA purified; label: 32P; RNA template with annealed primer

T1 sequence (Q15717 whole entry, the tested form may be a part): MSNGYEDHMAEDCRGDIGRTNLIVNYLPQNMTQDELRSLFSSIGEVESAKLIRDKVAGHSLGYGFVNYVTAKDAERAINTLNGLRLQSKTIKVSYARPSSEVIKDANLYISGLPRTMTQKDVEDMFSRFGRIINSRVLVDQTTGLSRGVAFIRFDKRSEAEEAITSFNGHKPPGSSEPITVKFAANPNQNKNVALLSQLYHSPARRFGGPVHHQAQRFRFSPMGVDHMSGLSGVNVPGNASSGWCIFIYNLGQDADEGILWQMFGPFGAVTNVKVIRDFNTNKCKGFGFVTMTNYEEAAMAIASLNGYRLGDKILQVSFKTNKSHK

Binder: UCAGAUAUUUAUAUUUUUAUUUUAUUUUUUUCUACCUUGAGGUCUUUUGA (ssRNA) [ARE-containing synthetic ssRNA (Fig. 2C)]
- binding result (NusA-HuR [1]): binds

B1: ARE-containing template/primer (Fig. 4B) (mixed)
RNA: UCAGAUAUUUAUAUUUUUAUUUUAUUUUUUUCUACCUUGAGGUCUUUUGA
DNA: CACTAGTCAAAAGACCTC
- binding result (NusA-HuR [2]): binds
